The values that follow come from PMC4198130.

For test [1], the target named is GST fusion of the SH3 domain of sorting nexin 9 (Panomics) (human) (UniProt Q9Y5X1). Description: pull-down; GST fusions of SH3 or WW domains on glutathione sepharose beads, incubated with detergent-solubilized (2% TX-100) rat brain extract, RT 60 min; bound VGLUT1 by immunoblot, band intensity normalised to lysate.
Test [2] deals with GST fusion of the VGLUT1 C-terminus, ΔWW/PAXY (rat). The test can be described thus: pull-down; GST fusions of the VGLUT1 C-terminus on glutathione sepharose beads, incubated with detergent-solubilized (2% TX-100) rat brain extract, RT 60 min; bound proteins by immunoblot, band intensity normalised to VG1 (Figs. 3C,D and 4B).
The target in test [3] is GST fusion of the VGLUT1 C-terminus lacking the second PP domain (rat). Described as above.
Test [4] has as its target GST fusion of the VGLUT1 C-terminus, ΔSH3/1,2,3 (rat). The test is described as above.
Test [5] addresses GST fusion of the VGLUT1 C-terminus, ΔWW/PAXA (rat). The description is as above.
Test [6] has as its target GST fusion of the VGLUT1 C-terminus, SS/AA (rat) (UniProt Q62634). Description: pull-down; 400 µg GST fusions of the VGLUT1 C-terminus on glutathione sepharose beads, rat brain extract in 100 mM Tris-HCl pH 7.5, 150 mM NaCl, 1 mM EGTA, 1% TX-100, 4°C 2 h; immunoblot (Fig. 6).
The target of test [7] is GST fusion of the VGLUT1 C-terminus, SS/DD (rat) (UniProt Q62634). The test is described as above.
Test [8] deals with GST fusion of the VGLUT1 C-terminus lacking the first PP domain (rat). The test can be described thus: pull-down; GST fusions of the VGLUT1 C-terminus on glutathione sepharose beads, incubated with extracts of COS7 cells transfected with myc-Lyn (2% TX-100); detected with antibody to myc, band intensity normalised to VG1.
The target in test [9] is GST fusion of the VGLUT1 C-terminus lacking the second PP domain (rat). The test is described as above.
Test [10] has as its target GST fusion of the VGLUT1 C-terminus lacking both PP domains (rat). The description is as above.
In test [11] the target is GST fusion of the VGLUT1 C-terminus lacking the first PP domain (rat). Description: pull-down; GST fusions of the VGLUT1 C-terminus on glutathione sepharose beads, incubated with detergent-solubilized (2% TX-100) rat brain extract, RT 60 min; bound proteins by immunoblot, band intensity normalised to VG1 (Figs. 3C,D and 4B).
The target in test [12] is GST fusion of the VGLUT1 C-terminus lacking both PP domains (rat). The description is as above.

Sequence of Nedd4 from rat brain extract (Q62940 whole entry): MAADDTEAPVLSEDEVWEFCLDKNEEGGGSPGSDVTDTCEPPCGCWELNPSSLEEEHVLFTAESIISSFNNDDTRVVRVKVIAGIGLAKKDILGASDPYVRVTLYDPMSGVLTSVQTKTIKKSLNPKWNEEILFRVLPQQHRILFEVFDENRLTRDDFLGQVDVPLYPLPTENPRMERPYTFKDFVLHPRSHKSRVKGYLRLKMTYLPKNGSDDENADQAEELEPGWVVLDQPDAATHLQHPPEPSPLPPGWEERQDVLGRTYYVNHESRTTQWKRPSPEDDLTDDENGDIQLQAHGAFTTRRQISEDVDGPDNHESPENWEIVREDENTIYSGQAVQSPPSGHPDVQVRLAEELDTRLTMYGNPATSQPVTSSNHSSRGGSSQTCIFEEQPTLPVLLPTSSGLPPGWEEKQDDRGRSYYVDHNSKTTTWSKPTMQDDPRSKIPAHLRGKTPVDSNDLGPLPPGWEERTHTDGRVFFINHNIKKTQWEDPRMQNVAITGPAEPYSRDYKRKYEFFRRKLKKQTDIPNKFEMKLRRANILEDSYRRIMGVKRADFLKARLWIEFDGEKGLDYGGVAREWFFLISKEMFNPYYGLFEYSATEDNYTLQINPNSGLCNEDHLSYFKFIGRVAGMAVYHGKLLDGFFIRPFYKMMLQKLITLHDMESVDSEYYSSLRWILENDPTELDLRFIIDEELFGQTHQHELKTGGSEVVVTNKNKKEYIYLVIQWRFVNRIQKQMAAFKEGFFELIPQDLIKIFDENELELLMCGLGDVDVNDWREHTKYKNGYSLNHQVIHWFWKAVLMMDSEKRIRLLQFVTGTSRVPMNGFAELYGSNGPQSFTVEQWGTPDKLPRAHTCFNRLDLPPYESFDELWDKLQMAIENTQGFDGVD
Sequence of myc-tagged Lyn (P25911 whole entry): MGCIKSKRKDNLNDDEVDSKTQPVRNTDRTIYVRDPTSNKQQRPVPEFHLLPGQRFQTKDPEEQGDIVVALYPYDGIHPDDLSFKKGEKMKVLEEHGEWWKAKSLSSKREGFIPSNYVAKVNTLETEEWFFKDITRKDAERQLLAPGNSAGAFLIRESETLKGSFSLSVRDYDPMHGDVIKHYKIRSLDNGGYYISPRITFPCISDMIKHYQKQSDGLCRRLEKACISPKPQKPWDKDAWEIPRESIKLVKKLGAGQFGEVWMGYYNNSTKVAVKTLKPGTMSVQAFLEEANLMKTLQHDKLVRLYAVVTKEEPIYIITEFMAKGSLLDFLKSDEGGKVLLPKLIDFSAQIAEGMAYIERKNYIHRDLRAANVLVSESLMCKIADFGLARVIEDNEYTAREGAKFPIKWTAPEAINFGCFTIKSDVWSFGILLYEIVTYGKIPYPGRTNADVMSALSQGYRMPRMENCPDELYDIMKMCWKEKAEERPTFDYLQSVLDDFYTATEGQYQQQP
Sequence of clathrin adaptor protein AP-2 from rat brain extract (P18484 whole entry, looked up): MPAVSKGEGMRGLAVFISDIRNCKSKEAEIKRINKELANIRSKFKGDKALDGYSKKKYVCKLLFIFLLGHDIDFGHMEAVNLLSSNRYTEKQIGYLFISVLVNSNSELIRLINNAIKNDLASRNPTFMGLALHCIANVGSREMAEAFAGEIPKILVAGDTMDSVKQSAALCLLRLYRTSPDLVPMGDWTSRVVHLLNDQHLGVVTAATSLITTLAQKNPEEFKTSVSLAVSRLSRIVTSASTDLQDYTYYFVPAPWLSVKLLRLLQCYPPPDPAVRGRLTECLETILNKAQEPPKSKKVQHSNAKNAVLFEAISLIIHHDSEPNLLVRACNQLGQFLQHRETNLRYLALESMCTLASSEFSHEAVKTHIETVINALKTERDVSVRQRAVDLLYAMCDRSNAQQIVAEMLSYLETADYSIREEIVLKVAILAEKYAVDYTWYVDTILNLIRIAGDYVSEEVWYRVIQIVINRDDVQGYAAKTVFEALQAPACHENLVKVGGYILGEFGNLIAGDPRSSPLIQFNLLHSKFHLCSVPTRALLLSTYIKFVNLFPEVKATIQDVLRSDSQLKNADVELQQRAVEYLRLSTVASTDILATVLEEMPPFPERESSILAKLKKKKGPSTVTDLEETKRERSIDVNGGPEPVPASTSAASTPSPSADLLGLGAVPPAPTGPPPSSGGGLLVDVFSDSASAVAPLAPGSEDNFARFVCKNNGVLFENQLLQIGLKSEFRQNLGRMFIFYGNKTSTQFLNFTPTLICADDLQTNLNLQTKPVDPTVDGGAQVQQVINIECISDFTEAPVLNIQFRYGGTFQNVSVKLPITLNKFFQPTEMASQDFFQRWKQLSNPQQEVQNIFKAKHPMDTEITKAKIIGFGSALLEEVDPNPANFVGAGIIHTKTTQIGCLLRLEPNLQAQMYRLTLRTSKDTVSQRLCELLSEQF
Sequence of GST fusion of the SH3 domain of sorting nexin 9 (Panomics) (human) (Q9Y5X1 1-62): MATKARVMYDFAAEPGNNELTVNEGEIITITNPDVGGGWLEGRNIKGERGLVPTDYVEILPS

Substance “VGLUT1 from rat brain extract (from UniProt Q62634 1-560) (natural protein)” gave a band intensity normalised to lysate in test [1] of 0.111 a.u.

Consider “Atrophin Interacting Protein AIP4/Itch from rat brain extract (enzyme)”, for which the band intensity normalised to VG1 turned out to be 0.119 a.u in [2], 0.822 a.u in [3], 0.99 a.u in [4] and 0.0669 a.u in test [5].

As for “clathrin adaptor protein AP-2 from rat brain extract (from UniProt P18484 1-938) (complex)”, the band intensity (a.u.) in [6] worked out at 0.674 a.u; in test [7], 1.76 a.u.

Consider “myc-tagged Lyn (from UniProt P25911 1-512) (enzyme)”, for which the figures for the band intensity normalised to VG1 in test [8], in [9] and in test [10] were 1.12 a.u, 0.0282 a.u and 0.0368 a.u, respectively.

For “Nedd4 from rat brain extract (from UniProt Q62940 1-887) (enzyme)”, the results for the band intensity normalised to VG1 in [11], in test [3] and in test [12] were 0.0459 a.u, 0.664 a.u and 0.0821 a.u, respectively.

In the case of “Nck from rat brain extract (natural protein)”, in test [11], the band intensity normalised to VG1 was 1.11 a.u.

Take “ponsin/c-Cbl interacting protein CAP from rat brain extract (from UniProt P84109 1-35) (natural protein)”: the results for the band intensity normalised to VG1 in test [11], in test [3] and in [12] were 2.24 a.u, 0.062 a.u and 0.225 a.u, respectively.
